Results from patent publication US8147817B2, “IL-33 in the treatment and diagnosis of diseases and disorders” (The Brigham and Women's Hospital, Inc., priority 2006, dated 2012).
Read-outs that look alike come from different tables or passages of the source.

Legend:
NF-κB = NF-κB luciferase reporter assay in neonatal rat cardiomyocytes; assay type: cell-based; conditions: angiotensin-II with IL-33 co-treatment, n=3
Method: Neonatal rat cardiomyocytes were transfected using Lipofectamine Plus (Invitrogen) with a luciferase reporter plasmid for NF-κB and with β-galactosidase, as described previously (47). After 48 hours of transfection, cells were then stimulated for an additional 24 hours, lysed and treated with Dual-Light assay system (Applied Biosystems, Foster City, Calif.), and analyzed using a luminometer (PerkinElmer Waltham, Calif.).

[1] = system: WT and ST2KO mice after MI; test: Experimental myocardial infarction with IL-33 treatment; assay type: in vivo, mouse; conditions: recombinant rat IL-33 intraperitoneal daily up to 4 weeks
Excerpt: 86 mice with wild-type (WT) or ST2 knockout (ST2KO) genotypes were randomized into 4 subgroups, Sham or MI operated, and with or without IL-33 treatment. Experimental myocardial infraction operation was done by permanent occlusion of the left anterior coronary artery via open-chest approach under deep anesthesia. IL-33 treatment was done by a single 2 microgram/kg on each day, intraperitoneal, of recombinant rat IL-33 protein, from the day of operation up to 4 weeks.
MI was produced on 8-10 week old mice.

mouse ST2 = target: T1, mouse ST2 (Mus musculus, UniProt P14719); test: Pull-down assay of recombinant IL-33 with mouse ST2-Fc protein; assay type: binding
T1 construct: purchased R&D
T1 sequence (P14719 27-337 isoform P14719-2 limits assumed): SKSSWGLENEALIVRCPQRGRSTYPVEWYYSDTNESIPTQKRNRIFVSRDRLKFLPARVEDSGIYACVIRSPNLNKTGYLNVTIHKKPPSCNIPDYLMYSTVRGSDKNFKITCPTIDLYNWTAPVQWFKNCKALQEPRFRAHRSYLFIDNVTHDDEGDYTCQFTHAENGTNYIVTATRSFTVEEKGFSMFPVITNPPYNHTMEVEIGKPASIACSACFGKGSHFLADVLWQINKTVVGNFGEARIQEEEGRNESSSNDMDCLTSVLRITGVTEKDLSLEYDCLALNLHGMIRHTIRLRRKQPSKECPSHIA
Excerpt: The GenBank™ accession number for rat IL-33 is BC081993. The rat IL-33 cDNA was subcloned into the expression vector pTrcHis-TOPO (Invitrogen), starting with amino acid 109 of the full-length protein with an N-terminal His tag. After sequencing, One-shot TOP10 bacteria (Invitrogen) were transformed and expression was induced with Isopropyl β-D-1-thiogalactopyranoside (Sigma). Four hours after induction, bacteria were harvested, and the pellet was resuspended in B-PER Bacterial Protein Extraction Reagent (Pierce) with EDTA-free protease inhibitor cocktail (Sigma). The lysate was purified with Ni-chelating affinity chromatography using a Ni-NTA Purification system (Invitrogen). Briefly, Ni NTA beads were washed twice after batch binding with 40 ml of 20 mM Imidazole, 300 mM NaCl, 50 mM potassium phosphate, pH 8.0. IL-33 was eluted with 10 ml of 250 mM Imidazole, 300 mM NaCl, 50 mM potassium phosphate, pH 8.0. IL-33 protein was further concentrated, dialyzed and purified by high-performance liquid chromatography (BioLogic DuoFlow System, Bio-Rad, Hercules, Calif.) using HiPrep sephacryl size exclusion column (GE Healthcare Bioscience, Piscataway, N.J.) with buffer containing 150 mM NaCl, 50 mM potassium phosphate, pH 7.2. Endotoxin level (<0.03 EU/μg protein) was determined by Limulus Amebocyte Lysate PYROGENT Ultra (Cambrex) as previously described (12). […]

B1: IL-33: recombinant mature rat IL-33, starting with amino acid 109 of the full-length protein, N-terminal His tag (GenBank BC081993) (protein)
chain: SIQGTSLLTESCALSTYNDQSVSFVLENGCYVINVEDCGKNQEKDKVLLRYYESSFPAQSGDGVDGKKLMVNMSPIKDTDIWLNANDKDYSVELQKGDVSPPDQAFFVLHKKSSDFVSFECKNLPGTYIGVKDNQLALVEENDESCNNIMFKLSKM
modifications: left off: small tags and cut ends
For B1, the “increase of NF-κB promoter activity” value (NF-κB) was 8+/−12%, the survival after infarction ([1]; ST2KO mice) was “eliminates this benefit” and the survival after infarction ([1]; WT mice) was “improves survival after infarction”. The “binding to mouse ST2 (pulldown with ST2-Fc chimera protein)” value (mouse ST2) was “bound to the mouse ST2 protein” and the “binding to mouse ST2 (pulldown with ST2-Fc chimera protein)” value (mouse ST2; listed as recombinant IL-33) was “exhibits specific binding to mouse ST2”.
